Assay results taken from patent publication US20210403546A1 (LUDWIG INSTITUTE FOR CANCER RESEARCH, published 2021).
Residue numbers refer to the chain shown, from its start. Names may count otherwise. Values belong to the binder of their own block, whether it stands above or below them.

Tests used:
[1] = biological target: T1, human recombinant TGF-b1 (human, UniProt P01137 279-390); assay: competition ELISA on hTGF-β1-coated plate; competitor biotinylated murine 13A1
T1 construct: also called TGF-β1; hTGF-β1
T1 sequence (P01137 279-390 limits assumed): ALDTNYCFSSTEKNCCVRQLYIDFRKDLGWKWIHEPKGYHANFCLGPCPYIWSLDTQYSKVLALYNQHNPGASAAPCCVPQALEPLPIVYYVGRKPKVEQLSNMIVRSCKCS
Description: Nunc Maxisorb ELISA plates were coated overnight at 8° C. with 0.5 μg/ml hTGF-β1 (Peter Sun, NIH) or hTGF-β3 (Shenandoah Biotech) at 0.5 μg/ml in 40 mM glycine buffer pH 9. Plates were washed and blocked with 10% FCS for 1 h at 37° C. In a separate low binding Greiner Bio-One ELISA plate, various concentrations of competing Abs were mixed with a constant concentration of biotinylated parental 13A1 or 1901 at 200 ng/ml in PBS+BSA (10 mg/ml) and then transferred onto the TGF-β-coated Nunc Maxisorb ELISA plate. After incubation for 2 h at 37° C. plates were washed, Avidine-HRP added and incubated for 1 h at 37° C. Plates washed again, TMB substrate was added and bound biotinylated antibody was quantitated by measuring color development in an ELISA reader at a wave length of 450 nm.
The potency of the humanized LCR13A1 IgG4 antibody variants to compete with the parental murine antibody for binding to TGFb1 was assessed by ELISA. The six IgG4 variants LCR13A1_VH_GLv3_LCR13A1_VK_GLv3 (LCR13A1-2A), LCR13A1_VH_GLv1_03_LCR13A1_VK_GLv3 (LCR13A1-2B), LCR13A1_VH_GLv3_LCR13A1_VK_GLv1_03 (LCR13A1-2C), LCR13A1_VH_GLv1_03_LCR13A1_VK_GLv1_03 (LCR13A1-2D), LCR13A1_VH_GLv1_03_LCR13A1_VK_GLv1_04 (LCR13A1-2E) and LCR13A1_VH_GLv1_03_LCR13A1_VK_GLv1_05 (LCR13A1-2F) competed with the parental murine 13A1 antibody for binding to TGFb1 in a dose-dependent manner (FIG. 17).

[2] = biological target: T1, human recombinant TGF-b1; assay: SPR (Biacore T200), 10 nM Fab over amine-coupled TGFb1 (492 RUs)
Description: FIG. 27 provides Biacore analysis of the new mutant variant antibodies and compares the new mutants versus parent variant 13A1-2F and versus mu13A1. Selected variants have different monovalent (huIgG1 stabilized Fab format). Biacore binding kinetics, range from lower to higher than the parental mouse 13A1 (mu13A1, hybrid with mouse VK/VH and huCK/huCH1). The data presented is ka, kd and apparent KD. TGFb1 (chip): 492 Rus, Fabs: 10 nM, Flow rate: 30 ul/min, Contact time: 510s, Diss. Time: 600s. Quality: Chi(2)<=1% Rmax and U score <=5. Data is presented for mutant variant antibodies 13A1_AF, 13A1_AG, 13A1_AH, 13A1_BF, 13A1_BG, 13A1_BH, 13A1_CF, 13A1_CG, 13A1_CH, 13A1_DF, 13A1_DG, 13A1_DH, 13A1_EF, 13A1_EG and 13A1_EH.
SPR binding analysis of Fabs: Experiments were performed using the Biacore T200 equipped with the Series S sensor chip CMS (GE Healthcare, cat. #BR-1005-30). The instrument temperature was set at 25° C. for all steps in the analysis while the compartment temperature was set at 10° C. All the assays were performed using the running buffer HBS-EP+ 1×. Recombinant TGF-β1 (Biocat, cat. #TG1-H4212-50 ug-AC) was immobilized with the standard amine-coupling chemistry using a solution of the ligand at 1 ug/mL in acetate, pH 4.5. Recombinant TGF-β1 was injected for several minutes to achieve a target density of 492 RUs. For TGF-β1 kinetic analysis Fabs were diluted in running buffer to 10 nM. One buffer blank was always injected before the injection of the antibody sample. The antibodies were then injected for 8.5 minutes (510 s) at 30 uL/min with 600 seconds of dissociation time. Regeneration was performed with 60 seconds of injection at 30 uL/min of 10 mM glycine 1.5. The Biacore binding kinetics range from lower to higher than the parental mouse 13A1 (mu13A1, hybrid with mouse VK/VH and huCK/huCH1.

[3] = biological target: T1, human recombinant TGF-b1; assay: ELISA, scFv culture on plate-coated TGF-b1, anti-cmyc detection

binding result [1]: binds
B1: LCR13A1_VH_GLv3_LCR13A1_VK_GLv3 (LCR13A1-2A) IgG4(S228P) (antibody, V domains shown)
VH: QVQLVQSGSELKKPGASVKVSCKTSGYTFTNYWMHWVRQAPGQGLEWIGTIYPGNSDTNYNQKFQGRVTITRDTSASTAYMELSSLRSEDTAVYFCTREDSRSLYYNGWDYFDYWGQGTTVTVSS
VL: DIVMTQSPDSLAVSLGERATINCKSSESVDNYGISFLNWFQQKPGKAPKLLIYAASNQGSGVPDRFSGSGSGTDFTLTISSLQAEDVAVYFCQQSKEVPRTFGGGTKLEIK
notes: Human IgG4 (IGHG4*01 with S228P) and human CK*01; also called Ab 2A

binding result [2]: binds
B2: 13A1_AH Fab (LCR13A1_VK_GLv3_02 + LCR13A1_VH_GLv1_06) (Fab, V domains shown)
VH: QVQLVQSGSVLAKPGASVKVSCKASGYTFTNYWTHWVRQAPGQGLEWIGTIYPGNSDTNYNQKFKDRAKLTAVTSTSTVYMELSSLRSEDTALYYCTREDSRSLNFNGWDYFDHWGQGTLVTVSS
VL: B1 VL with F40Y, V87A
notes: Human stabilized IgG1 Fab, 6xHis on CH1

binding result [1]: binds
B3: LCR13A1_VH_GLv3_LCR13A1_VK_GLv1_03 (LCR13A1-2C) IgG4(S228P) (antibody, V domains shown)
VH: B1 VH
VL: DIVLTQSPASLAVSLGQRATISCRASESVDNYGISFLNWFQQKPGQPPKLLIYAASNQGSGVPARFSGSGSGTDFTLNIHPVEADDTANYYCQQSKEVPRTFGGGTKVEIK
notes: Human IgG4 (IGHG4*01 with S228P) and human CK*01; also called Ab 2C

binding result [2]: binds
B4: 13A1_AF Fab (LCR13A1_VK_GLv3_02 + LCR13A1_VH_GLv1_04) (Fab, V domains shown)
VH: B2 VH with T34M, L93V, H114Y
VL: B1 VL with F40Y, V87A
notes: Human stabilized IgG1 Fab: VH-CH1(IgG1)-6xHis and VK-CK, CK/CH1 with the stabilizing mutations of Chen et al 2016

binding result [2]: binds
B5: 13A1_AG Fab (LCR13A1_VK_GLv3_02 + LCR13A1_VH_GLv1_05) (Fab, V domains shown)
VH: B2 VH with N105Y, F106Y
VL: B1 VL with F40Y, V87A
notes: as for B2

binding result [3]: binds
B6: LCR13A1_scFv (soluble scFv of murine 13A1) (scFv)
scFv: DIVLTQSPASLAVSLGQRATISCRASESVDNYGISFLNWFQQKPGQPPKLLIYAASNQGSGVPARFSGSGSGTDFSLNIHPMEEDDTGMYFCQQSKEVPRTFGGGTKLEIKRTVAARQEGGSGEGGSGESNAAAEVQLQQSGTVLARPGASVKMSCKTSGYTFTNYWMHWVRQRPGQGLEWIGTIYPGNSDTNYNQKFKDKAKLTAVTSATTAYMELSSLTNEDSAVYFCTREDSRSLYYNGWDYFDYWGQGTLVTVSSASTKAS
notes: Orientation VL-linker-VH; expressed in E. coli from pCHV101; also called LCR13A1 soluble scFv

binding result [1]: binds
B7: LCR13A1_VH_GLv1_03_LCR13A1_VK_GLv3 (LCR13A1-2B) IgG4[S228P] (antibody, V domains shown)
VH: B2 VH with T34M, L93V, N105Y, F106Y, H114Y
VL: DIVMTQSPDSLAVSLGERATINCKSSESVDNYGISFLNWFQQKPGKAPKLLIYAASNQGSGVPDRFSGSGSGTDFTLTISSLQAEDVAVYFCQQSKEVPRTFGGGTKLEIKR
notes: VK + CK*01; also called Ab 2B

binding result [1]: binds
B8: LCR13A1_VH_GLv1_03_LCR13A1_VK_GLv1_03 (LCR13A1-2D) IgG4(S228P) (antibody, V domains shown)
VH: B2 VH with T34M, L93V, N105Y, F106Y, H114Y
VL: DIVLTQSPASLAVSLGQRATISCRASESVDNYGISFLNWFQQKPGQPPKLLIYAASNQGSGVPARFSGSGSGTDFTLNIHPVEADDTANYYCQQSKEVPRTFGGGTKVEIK
notes: Human IgG4 (IGHG4*01 with S228P) and human CK*01; also called Ab 2D

binding result [2]: binds
B9: 13A1_DH Fab (LCR13A1_VK_GLv1_08 + LCR13A1_VH_GLv1_06) (Fab, V domains shown)
VH: B2 VH
VL: DIVMTQSPDSLAVSLGQRASISCRASESVDNYGISFLNWFQQKPGQPPKLLIYAASNQGSGVPSRFSGSGSGTDFTLNIHPLEAEDAATYYCQQSKEVPRTFGGGTKVEIK
notes: as for B2

binding result [1]: binds
B10: LCR13A1_VH_GLv1_03_LCR13A1_VK_GLv1_05 (LCR13A1-2F) IgG4[S228P] (antibody, V domains shown)
VH: B2 VH with T34M, L93V, N105Y, F106Y, H114Y
VL: DIVMTQSPDSLAVSLGERATISCRASESVDNYGISFLNWFQQKPGQPPKLLIYAASNQGSGVPSRFSGSGSGTDFTLNIHPLEAEDAATYYCQQSKEVPRTFGGGTKVEIKR
notes: VK + CK*01; also called Ab 2F; hIgG4 13A1-2F

binding result [2]: binds
B11: 13A1_CG Fab (LCR13A1_VK_GLv1_07 + LCR13A1_VH_GLv1_05) (Fab, V domains shown)
VH: B2 VH with N105Y, F106Y
VL: B9 VL with Q17E, S20T, F36L
notes: as for B2

binding result [2]: binds
B12: 13A1_BF Fab (LCR13A1_VK_GLv1_06 + LCR13A1_VH_GLv1_04) (Fab, V domains shown)
VH: B2 VH with T34M, L93V, H114Y
VL: B9 VL with Q17E, S20T, F40Y
notes: as for B2

binding result [2]: binds
B13: 13A1_EF Fab (LCR13A1_VK_GLv1_09 + LCR13A1_VH_GLv1_04) (Fab, V domains shown)
VH: B2 VH with T34M, L93V, H114Y
VL: B9 VL with F36L, F40Y
notes: as for B2

binding result [2]: binds
B14: 13A1_DF Fab (LCR13A1_VK_GLv1_08 + LCR13A1_VH_GLv1_04) (Fab, V domains shown)
VH: B2 VH with T34M, L93V, H114Y
VL: B9 VL
notes: as for B2

binding result [2]: binds
B15: 13A1_CH Fab (LCR13A1_VK_GLv1_07 + LCR13A1_VH_GLv1_06) (Fab, V domains shown)
VH: B2 VH
VL: B9 VL with Q17E, S20T, F36L
notes: as for B2

binding result [1]: binds
B16: LCR13A1_VH_GLv1_03_LCR13A1_VK_GLv1_04 (LCR13A1-2E) IgG4(S228P) (antibody, V domains shown)
VH: B2 VH with T34M, L93V, N105Y, F106Y, H114Y
VL: B9 VL with M4L, D9A, S20T, T89A
notes: Human IgG4 (IGHG4*01 with S228P) and human CK*01; also called Ab 2E

binding result [2]: binds
B17: 13A1_DG Fab (LCR13A1_VK_GLv1_08 + LCR13A1_VH_GLv1_05) (Fab, V domains shown)
VH: B2 VH with N105Y, F106Y
VL: B9 VL
notes: as for B2

binding result [2]: binds
B18: 13A1_BG Fab (LCR13A1_VK_GLv1_06 + LCR13A1_VH_GLv1_05) (Fab, V domains shown)
VH: B2 VH with N105Y, F106Y
VL: B9 VL with Q17E, S20T, F40Y
notes: as for B2

binding result [2]: binds
B19: 13A1_CF Fab (LCR13A1_VK_GLv1_07 + LCR13A1_VH_GLv1_04) (Fab, V domains shown)
VH: B2 VH with T34M, L93V, H114Y
VL: B9 VL with Q17E, S20T, F36L
notes: as for B2

binding result [2]: binds
B20: 13A1_BH Fab (LCR13A1_VK_GLv1_06 + LCR13A1_VH_GLv1_06) (Fab, V domains shown)
VH: B2 VH
VL: B9 VL with Q17E, S20T, F40Y
notes: as for B2

binding result [2]: binds
B21: 13A1_EH Fab (LCR13A1_VK_GLv1_09 + LCR13A1_VH_GLv1_06) (Fab, V domains shown)
VH: B2 VH
VL: B9 VL with F36L, F40Y
notes: as for B2

binding result [2]: binds
B22: 13A1_EG Fab (LCR13A1_VK_GLv1_09 + LCR13A1_VH_GLv1_05) (Fab, V domains shown)
VH: B2 VH with N105Y, F106Y
VL: B9 VL with F36L, F40Y
notes: as for B2
